Data taken from patent US20120135923A1, “Use of Melanocortins to Treat Dyslipidemia” (IPSEN PHARMA, S.A.S., priority 2009, published 2012).
pKi: −log10 of the molar value. Bridge positions count the residues as written; N and C are the ends. Square brackets hold non-standard residues; d marks the D form. 1Nal = N[C@@H](Cc1cccc2ccccc12)C(=O)O; d2Nal = N[C@H](Cc1ccc2ccccc2c1)C(=O)O

Tests used:
[1] = biological target: hMC4-R (human) (UniProt P32245); assay: cell-based or functional assay
[2] = biological target: hMC3-R (human) (UniProt P41968); assay: cell-based or functional assay
[3] = biological target: hMC5-R (human) (UniProt P33032); assay: cell-based or functional assay
[4] = biological target: hMC1-R (human) (UniProt Q01726); assay: cell-based or functional assay
[5] = biological target: hMC4-R (human) (UniProt P32245); assay: competition with [125I]-NDP-α-MSH, CHO-K1 membranes
[6] = biological target: hMC3-R (human) (UniProt P41968); assay: as above
[7] = biological target: hMC1-R (human) (UniProt Q01726); assay: as above
[8] = biological target: human melanocortin receptor subtype 5 (hMC5-R) (human) (UniProt P33032); assay: [125I]-NDP-α-MSH competition, membranes
[9] = biological target: human melanocortin receptor subtype 4 (hMC4-R) (human) (UniProt P32245); assay: [125I]-NDP-α-MSH competition, membranes
[10] = biological target: human melanocortin receptor subtype 1 (hMC1-R) (human) (UniProt Q01726); assay: [125I]-NDP-α-MSH competition, membranes
[11] = biological target: human melanocortin receptor subtype 3 (hMC3-R) (human) (UniProt P41968); assay: [125I]-NDP-α-MSH competition, membranes
[12] = biological target: hMC5-R (human) (UniProt P33032); assay: competition with [125I]-NDP-α-MSH, CHO-K1 membranes

hMC1-R (human), sequence (Q01726 whole entry): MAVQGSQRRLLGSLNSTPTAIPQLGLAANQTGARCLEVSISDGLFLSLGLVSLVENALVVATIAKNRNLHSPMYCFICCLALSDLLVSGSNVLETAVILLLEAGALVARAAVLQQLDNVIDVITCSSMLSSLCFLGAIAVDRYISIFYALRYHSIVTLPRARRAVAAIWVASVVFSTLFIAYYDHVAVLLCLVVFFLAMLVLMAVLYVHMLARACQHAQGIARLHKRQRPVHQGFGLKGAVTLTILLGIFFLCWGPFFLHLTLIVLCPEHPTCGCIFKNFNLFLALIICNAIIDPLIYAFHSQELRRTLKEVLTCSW
human melanocortin receptor subtype 1 (hMC1-R) (human), sequence (Q01726 whole entry): as above
human melanocortin receptor subtype 4 (hMC4-R) (human), sequence (P32245 whole entry): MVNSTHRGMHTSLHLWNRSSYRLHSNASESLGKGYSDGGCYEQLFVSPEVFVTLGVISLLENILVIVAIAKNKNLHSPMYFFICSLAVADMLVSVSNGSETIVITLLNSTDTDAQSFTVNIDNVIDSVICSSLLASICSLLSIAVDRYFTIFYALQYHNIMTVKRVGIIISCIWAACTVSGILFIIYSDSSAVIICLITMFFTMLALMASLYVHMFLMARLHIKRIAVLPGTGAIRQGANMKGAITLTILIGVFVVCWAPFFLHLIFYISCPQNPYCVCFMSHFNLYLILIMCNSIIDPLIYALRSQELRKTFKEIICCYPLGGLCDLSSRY
hMC4-R (human), sequence (P32245 whole entry): as above
hMC3-R (human), sequence (P41968 whole entry): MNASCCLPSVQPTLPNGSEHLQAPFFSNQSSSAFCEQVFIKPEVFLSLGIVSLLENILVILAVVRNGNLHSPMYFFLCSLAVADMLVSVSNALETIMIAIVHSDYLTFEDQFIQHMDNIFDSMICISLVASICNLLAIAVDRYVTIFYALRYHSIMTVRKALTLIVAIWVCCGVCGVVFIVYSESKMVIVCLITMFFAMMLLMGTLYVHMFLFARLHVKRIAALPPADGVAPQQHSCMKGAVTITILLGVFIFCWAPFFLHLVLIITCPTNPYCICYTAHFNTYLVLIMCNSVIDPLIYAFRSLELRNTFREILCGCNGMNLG
human melanocortin receptor subtype 3 (hMC3-R) (human), sequence (P41968 whole entry): as above
hMC5-R (human), sequence (P33032 whole entry): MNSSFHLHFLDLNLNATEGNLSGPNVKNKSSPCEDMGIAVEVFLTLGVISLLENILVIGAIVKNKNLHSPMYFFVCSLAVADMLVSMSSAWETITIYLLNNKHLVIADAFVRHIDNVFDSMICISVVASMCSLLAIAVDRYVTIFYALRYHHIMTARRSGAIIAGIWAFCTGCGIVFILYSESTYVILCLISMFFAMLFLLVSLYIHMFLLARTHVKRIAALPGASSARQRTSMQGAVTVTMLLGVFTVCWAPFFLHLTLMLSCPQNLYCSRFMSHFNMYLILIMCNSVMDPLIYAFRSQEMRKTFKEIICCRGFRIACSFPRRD
human melanocortin receptor subtype 5 (hMC5-R) (human), sequence (P33032 whole entry): as above

Substance: Ac-Arg-c(Asp-His-D-Phe-Arg-Trp-Ala-Lys)-NH2 (peptide; unit assumed)
- cAMP EC50 [1]: 0.055 nM
- cAMP EC50 [2]: 2.89 nM
- cAMP EC50 [3]: 467 nM
- cAMP EC50 [4]: 1.39 nM

Substance: Ac-hPhe-c(Asp-His-D-2-Nal-Arg-Trp-Gaba-Lys)-NH2 (peptide)
- pKi [5]: 9.03
- pKi [6]: 8.61
- pKi [7]: 9.34

Substance: Ac-Nle-c(Cys-D-Ala-His-D-2-Nal-Arg-Trp-Cys)-NH2 (peptide; unit assumed)
- cAMP Kb [1]: 38.8 nM
- cAMP Kb [2]: 12.4 nM
- cAMP EC50 [3]: 11.8 nM
- cAMP EC50 [4]: 17.6 nM

Substance: Hydantoin(C(O)-(D-Ala-Gly))-c(Cys-D-Ala-His-D-Phe-Arg-Trp-Cys)-NH2 (peptide)
- pKi [8]: 7.46
- pKi [9]: 8.37
- pKi [10]: 7.93
- cAMP EC50 [3]: 355 nM

Substance: Ac-Nle-c(Asp-His-D-Phe-Arg-Trp-Gaba-Lys)-NH2 (peptide; unit assumed)
- cAMP EC50 [1]: 0.131 nM
- cAMP EC50 [2]: 0.628 nM
- cAMP EC50 [3]: 3.48 nM
- cAMP EC50 [4]: 1.37 nM

Substance: Hydantoin(C(O)-(D-Arg-Gly))-c(Cys-D-Ala-His-D-Phe-Arg-Trp-Cys)-NH2 (peptide)
- pKi [8]: 6.06
- pKi [9]: 8.24
- pKi [11]: 7.31
- pKi [10]: 8.45
- cAMP EC50 [3]: 3950 nM

Substance: Ac-Nle-c(Asp-His-D-2-Nal-Arg-Trp-β-Ala-Lys)-NH2 (peptide)
- pKi [7]: 9.19

Substance: Ac-D-Arg-c(Cys-D-Ala-His-D-Phe-Arg-Trp-Pen)-NH2 (peptide)
- pKi [6]: 7.88
- pKi [12]: 6.09
- pKi [7]: 8.08

Substance: Ac-2-Nal-Arg-c(Cys-D-Ala-His-D-Phe-Arg-Trp-Cys)-NH2 (peptide; unit assumed)
- cAMP EC50 [1]: 0.275 nM
- cAMP EC50 [2]: 6.11 nM
- cAMP EC50 [3]: 1730 nM
- cAMP EC50 [4]: 9.66 nM

Substance: Ac-hPhe-c(Asp-His-D-2-Nal-Arg-Trp-Gaba-Lys)-NH2 (peptide; unit assumed)
- cAMP Kb [1]: 0.824 nM
- cAMP Kb [2]: 9.32 nM
- cAMP EC50 [3]: 0.307 nM
- cAMP EC50 [4]: 0.413 nM

Substance: Ac-Nle-c(Cys-3-Pal-D-Phe-Arg-Trp-Gaba-Cys)-NH2 (peptide)
- pKi [6]: 6.82
- pKi [12]: 7.03
- pKi [7]: 7.68

Substance: Ac-Cha-c(Asp-His-D-2-Nal-Arg-Trp-Gaba-Lys)-NH2 (peptide; unit assumed)
- cAMP Kb [1]: 0.442 nM
- cAMP Kb [2]: 3.02 nM
- cAMP EC50 [3]: 0.736 nM
- cAMP EC50 [4]: 1.27 nM

Substance: Hydantoin(C(O)-(Arg-Gly))-c(Cys-Glu-His-D-Phe-Arg-Trp-Cys)-NH2 (peptide; unit assumed)
- cAMP EC50 [1]: 0.0979 nM
- cAMP EC50 [2]: 7.86 nM
- cAMP EC50 [4]: 8.83 nM

Substance: Hydantoin(C(O)-(Arg-Gly))-c(Cys-D-Ala-His-D-Phe-Arg-Trp-Cys)-NH2 (peptide; unit assumed)
- cAMP EC50 [1]: 0.503 nM
- cAMP EC50 [2]: 18.2 nM
- cAMP EC50 [4]: 8.81 nM

Substance: Ac-WRC[dA]H[dF]RWC-NH2 (disulfide 3-9)
- cAMP EC50 [1]: 0.219 nM
- cAMP EC50 [2]: 3.95 nM
- cAMP EC50 [3]: 2580 nM
- cAMP EC50 [4]: 5.78 nM

Substance: Hydantoin(C(O)-(Gly-D-Arg))-c(Cys-Glu-His-D-Phe-Arg-Trp-Cys)-NH2 (peptide; unit assumed)
- cAMP EC50 [1]: 0.125 nM
- cAMP EC50 [2]: 10.3 nM
- cAMP EC50 [4]: 12.9 nM

Substance: Ac-Nle-c(Cys-D-Cha-His-D-Phe-Arg-Trp-Cys)-NH2 (peptide; unit assumed)
- cAMP EC50 [1]: 0.453 nM
- cAMP EC50 [2]: 0.541 nM
- cAMP EC50 [3]: 45.3 nM
- cAMP EC50 [4]: 0.819 nM

Substance: Ac-D-Arg-c(Asp-His-D-Phe-Arg-Trp-Ala-Lys)-NH2 (peptide; unit assumed)
- cAMP EC50 [1]: 0.078 nM
- cAMP EC50 [2]: 5.76 nM
- cAMP EC50 [3]: 297 nM
- cAMP EC50 [4]: 1.48 nM

Substance: Hydantoin(C(O)-(Gly-Arg))-c(Cys-D-Ala-His-D-Phe-Arg-Trp-Cys)-NH2 (peptide; unit assumed)
- cAMP EC50 [1]: 0.599 nM
- cAMP EC50 [2]: 5.17 nM
- cAMP EC50 [4]: 8.85 nM

Substance: Ac-CEH[d2Nal]R[1Nal]ACPPKD-NH2 (disulfide 1-8)
- cAMP Kb [1]: 5.92
- cAMP Kb [2]: 105
- cAMP EC50 [4]: 269

Substance: Hydantoin(C(O)-(D-Arg-Gly))-c(Cys-D-Ala-His-D-Phe-Arg-Trp-Cys)-NH2 (peptide; unit assumed)
- cAMP EC50 [1]: 0.513 nM
- cAMP EC50 [2]: 23.2 nM
- cAMP EC50 [4]: 11.5 nM

Substance: Ac-1-Nal-Arg-c(Cys-D-Ala-His-D-Phe-Arg-Trp-Cys)-NH2 (peptide; unit assumed)
- cAMP EC50 [1]: 0.363 nM
- cAMP EC50 [2]: 4.21 nM
- cAMP EC50 [3]: 1320 nM
- cAMP EC50 [4]: 8.67 nM

Substance: Hydantoin(C(O)-(Gly-Gly))-c(Cys-Glu-His-D-Phe-Arg-Trp-Cys)-NH2 (peptide; unit assumed)
- cAMP EC50 [1]: 0.214 nM
- cAMP EC50 [2]: 8.05 nM
- cAMP EC50 [4]: 124 nM

Substance: Hydantoin(C(O)-(Gly-Gly))-c(Cys-D-Ala-His-D-Phe-Arg-Trp-Cys)-NH2 (peptide; unit assumed)
- cAMP EC50 [1]: 0.336 nM
- cAMP EC50 [2]: 2.46 nM
- cAMP EC50 [4]: 14.2 nM

Substance: Ac-Arg-c(Cys-D-Ala-His-D-Phe-Arg-Trp-Pen)-NH2 (peptide; unit assumed)
- cAMP EC50 [2]: 13.3 nM
- cAMP EC50 [3]: 10000 nM
- cAMP EC50 [4]: 48.3 nM

Substance: Ac-Cha-c(Asp-His-D-Phe-Arg-Trp-Gaba-Lys)-NH2 (peptide; unit assumed)
- cAMP EC50 [1]: 0.0949 nM
- cAMP EC50 [2]: 0.189 nM
- cAMP EC50 [3]: 30.2 nM
- cAMP EC50 [4]: 3.26 nM

Substance: Ac-D-Arg-c(Cys-D-Ala-His-D-Phe-Arg-Trp-Pen)-NH2 (peptide; unit assumed)
- cAMP EC50 [2]: 10.5 nM
- cAMP EC50 [3]: 2440 nM
- cAMP EC50 [4]: 26.5 nM

Substance: Ac-Nle-c(Cys-D-Ala-His-D-Phe-Arg-Trp-Cys)-NH2 (peptide; unit assumed)
- cAMP EC50 [1]: 0.078 nM
- cAMP EC50 [2]: 0.33 nM
- cAMP EC50 [3]: 420 nM
- cAMP EC50 [4]: 2.4 nM

Substance: Ac-Arg-c(Cys-D-Ala-His-D-2-Nal-Arg-Trp-Cys)-NH2 (peptide; unit assumed)
- cAMP Kb [1]: 1.58 nM
- cAMP Kb [2]: 5.72 nM
- cAMP EC50 [3]: 1110 nM
- cAMP EC50 [4]: 193 nM

Substance: Ac-D-Arg-c(Cys-D-Ala-His-D-Phe-Arg-Trp-Cys)-NH2 (peptide)
- pKi [12]: 6.45

Substance: Hydantoin(C(O)-(D-Arg-Gly))-c(Cys-Glu-His-D-Phe-Arg-Trp-Cys)-NH2 (peptide)
- pKi [8]: 5.65
- pKi [9]: 8.53
- pKi [11]: 6.91
- pKi [10]: 8.02
- cAMP EC50 [3]: 2710 nM

Substance: Hydantoin(C(O)-(D-Arg-Gly))-c(Cys-Glu-His-D-Phe-Arg-Trp-Cys)-NH2 (peptide; unit assumed)
- cAMP EC50 [1]: 0.16 nM
- cAMP EC50 [2]: 17.1 nM
- cAMP EC50 [4]: 18 nM

Substance: Hydantoin(C(O)-(D-Ala-Nle))-c(Cys-D-Ala-His-D-Phe-Arg-Trp-Cys)-NH2 (peptide)
- pKi [8]: 5.74
- pKi [11]: 7.19
- pKi [10]: 7.80

Substance: Hydantoin(C(O)-(Ala-Gly))-c(Cys-D-Ala-His-D-Phe-Arg-Trp-Cys)-NH2 (peptide; unit assumed)
- cAMP EC50 [1]: 0.241 nM
- cAMP EC50 [2]: 2.23 nM
- cAMP EC50 [4]: 17.6 nM

Substance: Hydantoin(C(O)-(Gly-D-Arg))-c(Cys-Glu-His-D-Phe-Arg-Trp-Cys)-NH2 (peptide)
- pKi [8]: 5.34
- pKi [9]: 8.75
- pKi [11]: 7.11
- pKi [10]: 8.37
- cAMP EC50 [3]: 7440 nM

Substance: Ac-Nle-c(Asp-His-D-Phe-Arg-Trp-β-Ala-Lys)-NH2 (peptide; unit assumed)
- cAMP EC50 [1]: 0.128 nM
- cAMP EC50 [2]: 0.145 nM
- cAMP EC50 [3]: 2.79 nM
- cAMP EC50 [4]: 0.834 nM

Substance: Ac-Nle-c(Cys-D-Ala-His-D-Phe-Arg-Trp-Pen)-NH2 (peptide; unit assumed)
- cAMP EC50 [1]: 0.183 nM
- cAMP EC50 [2]: 2.03 nM
- cAMP EC50 [3]: 2240 nM
- cAMP EC50 [4]: 14.3 nM

Substance: Ac-hCha-c(Asp-His-D-Phe-Arg-Trp-Gaba-Lys)-NH2 (peptide; unit assumed)
- cAMP EC50 [1]: 7.24 nM
- cAMP EC50 [2]: 3.32 nM
- cAMP EC50 [3]: 415 nM
- cAMP EC50 [4]: 2.27 nM
